Measurements from the supplement of paper PMC10724198.

Legend:
[1] = system: Saccharomyces cerevisiae; experiment: protein stability index of tFT-peptide fusion in deletion strain of DAS1 (PSI (0-1 scale)); higher = more stable (slower turnover)
Method: (§1)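 MPS profiling in S. cerevisiae of two library types built from selected 12-aa C-degron peptides (IN1, IN2, LN1, LN3, VN2, R1-R5, W1-W3, Atg1 and Rpa12 C-termini): saturation mutagenesis libraries and C-terminal +1 capping libraries (13 aa). Each peptide is fused to the C-terminus of a sfGFP-mCherry timer, after a GGGS linker. Cells are FACS-sorted into 8 mCherry/sfGFP bins and sequenced. PSI runs from 0 (unstable) to 1 (stable), measured once in wild type and in the das1Δ or doa10Δ background.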

[2] = system: Saccharomyces cerevisiae; experiment: protein stability index of tFT-peptide fusion in wild type (PSI (0-1 scale)); higher = more stable (slower turnover); conditions: genetic background: wild type
Method: as §1
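Wherever protein stability index of tFT-peptide fusion in deletion strain of DAS1 is given: PSI is a weighted mean of each variant's read distribution over the sorted stability bins, computed only for variants having over 10 reads in total.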
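Wherever protein stability index of tFT-peptide fusion in wild type is given: PSI derived as read-weighted mean over the 8 sorting bins, only variants exceeding 10 total reads kept, mCherry placed adjacent to the peptide and sfGFP distal.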

Row | Sequence | protein stability index [1] | protein stability index [2]
1 | FSMRWTFRFWVN | 0.419 | 0.052
2 | FSMRWTFRIWVN | 0.288 | 0.0523
3 | FSMRWTFRSWVN | 0.515 | 0.272
4 | FSMRWTFRYHVN | 0.472 | 0.035
5 | FSMRWTFRYNVN | 0.568 | 0.214
6 | FSMRWTFRYVVN | 0.496 | 0.117
7 | FSMRWTFRYWDN | 0.554 | 0.0861
8 | FSMRWTFRYWRN | 0.531 | 0.653
9 | FSMRWTFRYWVC | 0.403 | 0.0396
10 | FSMRWTFRYWVD | 0.467 | 0.46
11 | FSMRWTFRYWVNN | 0.558 | 0.137
12 | FSMRWTFRYWVNQ | 0.558 | 0.141
13 | FSMRWTFRYWVQ | 0.48 | 0.205
14 | FSMRWTFRYWVY | 0.374 | 0.0725
15 | FSMRWTFRYYVN | 0.482 | 0.0506
16 | FSMRWTHRYWVN | 0.561 | 0.0511
17 | FSMWWTFRYWVN | 0.444 | 0.077
18 | FSNRWTFRYWVN | 0.617 | 0.0838
19 | GKHKKGQKQKIN | 0.585 | 0.133
20 | GLIQPLPVQFLN | 0.62 | 0.0806

Row | Sequence | protein stability index [1] | protein stability index [2]
21 | HDKRNHLIKLLN | 0.581 | 0.077
22 | HKILRQKMNHQN | 0.683 | 0.168
23 | IVVYLSCVACIN | 0.0302 | 0.0176
24 | KKHAKGQKQKIN | 0.565 | 0.121
25 | KKHKKGPKQKIN | 0.603 | 0.175
26 | KKHKKGQAQKIN | 0.605 | 0.0853
27 | KKHKKGQKIKIN | 0.576 | 0.294
28 | KKHKKGQKQEIN | 0.589 | 0.591
29 | KKHKKGQKQKAN | 0.709 | 0.308
30 | KKHKKGQKQKIK | 0.553 | 0.634
31 | KKHKKGQKQKIL | 0.595 | 0.222
32 | KKHKKGQKQKIS | 0.607 | 0.101
33 | KKHKKGQKQMIN | 0.591 | 0.117
34 | KKHKKGQKVKIN | 0.615 | 0.225
35 | KKHKKGQLQKIN | 0.628 | 0.121
36 | KKHKKGQNQKIN | 0.625 | 0.191
37 | KKHKKQQKQKIN | 0.59 | 0.0595
38 | KLHKKGQKQKIN | 0.612 | 0.0703
39 | KTSCGYKFRTNN | 0.679 | 0.225
40 | LDKRNHLIKLLN | 0.599 | 0.137

Row | Sequence | protein stability index [1] | protein stability index [2]
41 | LEVYLSCVACIN | 0.0737 | 0.0193
42 | LKILDQKMNHQN | 0.691 | 0.648
43 | LKILRLKMNHQN | 0.65 | 0.171
44 | LKILRQIMNHQN | 0.693 | 0.244
45 | LKILRQKDNHQN | 0.666 | 0.664
46 | LKILRQKMNHQC | 0.635 | 0.184
47 | LKILRQKMNHSN | 0.674 | 0.231
48 | LKILRQKMNLQN | 0.666 | 0.221
49 | LKILRQKMNWQN | 0.661 | 0.286
50 | LKILRQKMYHQN | 0.658 | 0.249
51 | LKILRQLMNHQN | 0.665 | 0.219
52 | LKILRQPMNHQN | 0.68 | 0.658
53 | LKILRQWMNHQN | 0.693 | 0.184
54 | LKILRQYMNHQN | 0.675 | 0.242
55 | LKQLRQKMNHQN | 0.663 | 0.212
56 | LKSLRQKMNHQN | 0.681 | 0.202
57 | LLVYLSCVACIN | 0.0429 | 0.0174
58 | LRWRVGLWRGAS | 0.682 | 0.0917
